Data on 22 sequences can be found in a protein production outcome set (Wang et al. 2014).

A short description of the data set: label from the status in PepcDB records.
Turning to “SGGRRSSWIKNWTLWKHFKDYFPIHLIKTQDLDPSHNYIFGFHPHGIMAVGAFGNFSVNYSDFKDLFPGFTSYLHVLPLWFWCPVFREYVMSVGLVSVSKKSVSYMVSKEGGGNISVIVLGGAKESLDAHPGKFTLFIRQRKGFVKIALTHGASLVPVVSFGENELFKQTDNPEGSWIRTVQNKLQKIMGFALPLFHARGVFQYNFGLMTYRKAIHTVVGRPIPVRQTLNPTQEQIEELHQTYMEELRKLFEEHKGKYGIPEHETLVLK”, the protein production entry is on record as “not failed”. In the case of “SGTFDSQCHECFESKERWYEIGPTDLLERKGSLTLRSHHKKYSEPVLVYSWHRNREAFPKDYDIESLETVKNLCMSTYKRFGSDSPRWMSEAREQMAQVLVNKDLVEKKKTGLLDEETLCPGILERDPELPPTGFRDVPMESPPDPRKPCFSTTYSEDFTPQYEYPPPACPRREEYSIVHRKCRSQFTDLNGSKRLGINTWHDESGIYANSEAKQKLYALARNPIVPF”, the protein production result was “failed”. With “SIEVRGKIKLGLLPETYEHLQPILFEFQDQYPQVELDIRNINNGFIDMFQQGLDIALHGGMLFDSDIVARKILTLDRCVVASPNYLQTHGTPATLEELSDHQCICFRWPNGNVDNLWHFQEQNVALKPKLISNNIGFIK”, the protein production result is listed as “failed”. Take “SKEDTEITIQKIMDAVVDQLLRLGYDKMSYTTLSQQTGVSRTGISHHFPKKTDFTAALDGRIFKMFIEHLEFEKGLDAFSQSWIKALEDSEFLAILRLLFHHIVTSESAHEFAANGIDRLYKMVESQFGSGGDKELEWLIGRSLIQ”: the protein production result is on record as “failed”. “SKGRPQIDSSKATDKINPMDFTFVEINEAVKLVEMGVATPQDIDTAIKLGLNRPFGPFELAKQFGAEQIAKRLEELAKQFGKKIFEPAKTLKEGKLEELLKAGKAE”: the protein production result is “not failed”. Take “SKQDASRNAAYTVDCEDYVHVVEFNPFENGDSGNLIAYGGNNYVVIGTCTFQEEEADVEGIQYKTLRTFHHGVRVDGIAWSPETRLDSLPPVIKFCTSAADMKIRLFTSDLQDKNEYKVLEGHTDFINGLVFDPKEGQEIASVSDDHTCRIWNLEGVQTAHFVLHSPGMSVCWHPEETFKLMVAEKNGTIRFYDLLAQQAILSLESEQVPLMSAHWCLKNTFKVGAVAGNDWLIWDITRSSYPQNKRPVHMDRACLFRWSTISENLFATTGYPGKMASQFQIHHLGHPQPILMGSVAVGSGLSWHRTLPLCVIGGDHKLLFWVTEV”: the protein production result is “not failed”. As for “SKSSEKRQAVDTAVDGVFIRSLKVNCKVTSRFAHYVVTSQVVNTANEAREVAFDLEIPKTAFISDFAVTADGNAFIGDIKDKVTA”, the protein production entry is recorded as “failed”. As to “SKYKILVSFSNPESGKTLLKLANGLTKKLNSNASLTALHLSPTNELHHYNIEEYEKEIFDPIIEESQQLNQKVTTIFKASNDINYEVADTANKGDYDLLLVG”, the protein production entry is recorded as “failed”. Then “SLAGETINFCKGWKFHLGDAGKGASSSSYNDSQWRILNIPHDWSIEGTYKQFENGTDWQSGFLPAGISWYRKTFTIPSKWKNKKVQILFEGVYLNSEVWINGHWLGKRPNGYISFVYDLTPYLQEGKNQIAVKVDHSKALTGRWYTGSGIYRPVYLLVSNPTHIPYSGIHFRSKLQNKQSATYTLSIEIETQEKKPIKVKTYLQAPNGSIADTSEKIFVSSADSLCFLSGSIRKPLLWSPDSPNVYTLICQLTRDNKILDECRLPVGFRQLEFNPVSGFLLNGKSLKIKGVCDHHTVGAVGAAVPDDLLHYRLKLLKDMGCNAIRTSHNPFSPAFYNLCDTMGIMVLNEGLDGWNQPKAADDYGNYFDEWWQKDMTDFIKRDRNHPSIIMWSIGNEVTGATPEIQHNLVSLFHQLDPDRPVTQGGTDPTRGMKTDYQKKFNYLDIIGFNGNGEEIGELEHFHKNYPTLCAIATEVPHTYQTRGVYRSQTQWRRRDFPAPWEKGNINWEQFKHRVFPIPDLTEKECFPEESDYPYYQSSYDNASVRISARKSWQRTCSFPWLMGEFRWGSFDYLGEAEWPQRCGNFGIIDIAAIPKDAYFLYQSLWTDKPMVHLLPHWTHPGKEGKTIPVVIYTNCDAVELFINNVSLGSKPYTGEQLIWLVPYSPGKIEARGIKKGKIVATDCYQSAEAPHSVALASNKYSVKAGSDEVIRIEIDITDKNGIPCPYASNELSFHVSGPLRLLGVDNGNPTDMFPYQQPHCRCFRGKCVVLLQSDEEKGKGTLTVQGTKLVEKKLIIEVIEG”, with “not failed”; and “SLDSINTRIAEELSALPSGRVQPQQVAAAVALLDEGSTVPFIARYRKEVTGSLDDTQLRMLEERLRYLRELEERRGAILASIEEQGKLTPELARDIKLADTKTRLEDLYLPYKQKRRTKGQIALEAGLGALADALFDDPTLVPESEAARFVDAEKGFADVKAVLEGAKYILMERFAEDATLLDKLRVFMKNEATLTARVVPGKEQEGAKFSDYFEHDEPLKSAPSHRALAIFRGRNEGVLSASLKVGEEAPGTLHPCEVMIAQRFGLSNQGRAADKWLAEVVRWTWKVKLYTHLETDLFGELRDGAEDEAISVFARNLHDLLLAAPAGPRATLGLDPGLRTGVKVAVVDATGKLLDTATVYPHAPKNQWDQTLAVLAALCAKHQVELIAIGNGTASRETDKLAGELIKKYPGMKLTKIMVSEAGASVYSASELAAKEFPELDVSLRGAVSIARRLQDPLAELVKIEPKSIGVGQYQHDVSQLKLARSLDAVVEDCVNAVGVDVNTASAALLARISGLNSTLAQNIVAHRDANGAFRTRDELKKVSRLGEKTFEQAAGFLRVMNGDNPLDASAVHPETYPLVQRIAADTERDIRSLIGDSAFLKRLDPKKFTDETFGLPTVTDILKELDKPGRDPRPEFKTAEFQEGVESLKDLKPGMVLEGVVTNVTNFGAFVDIGVHQDGLVHISALSEKFVKDPYEVVKAGDIVKVKVMEVDIPRNRVGLSMRMSDTPGEKVEGQRGGRPTGSGQPRQERGAPRGQSAPPANNAMAALFANAKQLKKK”, with “not failed”. For “SLFVKESHNTSKGPEATWNLNKVHFVYDSSEKTHFKAPVKVNKYIASSHHLSALVTPAGMSYECQAQQTISLASSDPQKTVTMILSAVHIQPFDIISDFVFSEEHKCPVDEQEQLEETLPLILGLILGLVIVITLVIYHIHHKMTANQVQIPRDRSQYKHMG”, the protein production result was “failed”. As to “SLLRFSAVSRHHRGASIDPMTFSEATTPDALTPDAHTPRLLTCDVLYTGMGGAQSPGGVVVVGETVAAAGHPDELRRQYPHAAEERAGAVIAPPPVNAHTHLDMSAYEFQALPYFQWIPEVVIRGRHLRGVAAAQAGADTLTRLGAGGVGDIVWAPEVMDALLAREDLSGTLYFEVLNPFPDKADEVFAAARTHLERWRRLERPGLRLGLSPHTPFTVSHRLMRLLSDYAAGEGLPLQIHVAEHPTELEMFRTGGGPLWDNRMPALYPHTLAEVIGREPGPDLTPVRYLDELGVLAARPTLVHMVNVTPDDIARVARAGCAVVTCPRSNHHLECGTFDWPAFAAAGVEVALGTDSVASGETLNVREEVTFARQLYPGLDPRVLVRAAVKGGQRVVGGRTPFLRRGETWQEGFRWELSRDL”, the protein production entry is reported as “not failed”. As for “SLRHSPSLWELVEEHVPLRERREVKRILGEAAVDLSLELRAEVAMLRALLQEARSSQAPSSRPISDPSSLLAPPPLLKDLLRQELRQLLQGLRHKAICEGRDQAQAWVQYSPRVLHFALEEPRCDLPEQEIFQMRGGGPSSGHRDLSIIKDQLNVSNIDQVARHLRGLLEEECHTLEREILILQRCLEEEYLRPCHPSEAALEPTLAELKEQKKAMEQELQASVGPSCVSPNHRQRPLGSSTQGLRPPLPLCGVAPLQCCLPAPPLEPYLRPRGQSATHRWGRQLQCSPREGPASTPMSSAAPQAPA”, the protein production result was “not failed”.

In the case of “SLSEDKMDLYLQQGMYGPLETKPDERHLFLGSLRERVVLALTKGQVLRSKPYKEAEHELKNSHNVTLLINGELQYQSYSSYIQMASRYGVPFKIVSDLQFHTPLGIVIAADIAVNRELIYIQDDIYNRSVLKS”, the protein production entry is “not failed”. As to “SLSQTTNIKEQTDTGLAPPAPAITTNSAAIEEQANSSIRKLYHTLNTMPNTSMADRISQISAYFKGTKYILGSLGEGPNARYDQFPRYRVDGFDCDTYVNTVLSLALANSLESFQECLKHTRYKNGKRSYINRNHFTSIDWNNYNQKRGLLKDITFSIRNEKKQPVALYANALINKPQWYNHKTIDTIRLQKQDKNEQEKRLVELKAKGKTLETSLSNVPYIPFTALFSENKPNLHLFSQIPNGAVIEIIRPNWDLRQQIGTELDISHLGFAIWINNELFFRQASSQYGKVVDVSLIDYLDKARSSPTIKGINIQVVLPEKPVSNGCQLFDIR”, the protein production result was “not failed”. Take “SLSSKDKDTVKALWGKIADKAEEIGSDALSRMLAVYPQTKTYFSHWKDLSPGSAPVNKHGKTIMGGIVDAVASIDDLNAGLLALSELHAFTLRVDPANFKILSHCILVLLAVKFPKDFTPEVHISYDKFFSALARALAEKYR”: the protein production result is given as “not failed”.

In the case of “SNQLQQLQNPGESPPVHPFVAPLSYLLGTWRGQGEGEYPTIPSFRYGEEIRFSHSGKPVIAYTQKTWKLESGAPMHAESGYFRPRPDGSIEVVIAQSTGLVEVQKGTYNVDEQSIKLKSDLVGNASKVKEISREFELVDGKLSYVVRMSTTTNPLQPHLKAILDKL”, the protein production entry is “not failed”. Turning to “SNSHDGSNFSNKFSAHKDVVEDLLRKDTVGLVTFQDFRARREYLERCAVAEAACQNASRRAEELETKKKRVKRANLSRLSFGDSLEDQEENSVEFAKITRFASSKKANGVGFNTSGQDIVKEPDVFSPKEEGFFGKQNRKIGMDPGVDTSFLPDRDREQEERLERERLKQQWLSEQERVKNEEIDIIYSIWDGRGQRKLLSCKKGTTIAKFLSIVQQKVSTLKHCKVEDLMFIKEDMIIPHHLSFYDLISMKARGKNGSLFCFDVHEDIRIRNDASVEKDDSHAAKVVERRWYERNKHIYPASMWEVFDVSKNYGRVQKDFFGN”, the protein production entry is reported as “failed”. As to “SPLPVALQTRLAKRGILKHLEPEPEEEIIAEDYDDDPVDYEATRLEGLPPSWYKVFDPSCGLPYYWNADTDLVSWLSPHDPNSVVTKSAKKLRSSNADAEEKLDRSHDKSDRGHDKSDRSHEKLDRGHDKSDRGHDKSDRDRERGYDKVDRERERDRERDRDRGYDKADREEGKERRHHRREELAPYPKSKKAVSRKDEELDPMDPSSYSDAPRGTWSTGLPKRNEAKTGADTTAAGPLFQQRPYPSPGAVLRANAEASRTKQQD”, the protein production entry is “not failed”. Turning to “SPMPAGRPRFLRSMALSSQTREWLEKGMPTEAEAGVPIRLQERAANTAPQARAEERHTQPADAAAPHARAERGRTLQAPASTSPLYTGAVPRANRIVQQLVEAGADLANIRTMFRNMLRGEEMILSRAEQNVFLQHFPDMLPCGIDRNSELAIALREALRRADSQQAARAPARTPPRSS”, the protein production result is recorded as “not failed”. With “SQSLYQALWNSADVLRSKMDANDYKSYLLGMVFYKYLSDKMLFFVAETMEEETESLDEALAVYRKYYEDEETHEDLLAVITDEMSYAIHPDLTFTALVERVNDGSFQLEDLAQGFRDIEQSDELYENLFEDIDLYSKKLGATPQKQNQTVAAVMKELAVLDVAGHAGDMLGDAYEYLIGQFATDSGKKAGEFYTPQPVAKLMTQIAFLGREDKQGFTLYDATMGSGSLLLNAKRYSRQPQTVVYFGQELNTSTYNLARMNMILHGVPIENQFLHNADTLDEDWPTQEPTNFDGVLMNPPYSAKWSASSGFMDDPRFSPFGKLAPKSKADFAFLLHGYYHLKQDNGVMAIVLPHGVLFRGNAEGTIRKALLEEGAIDTVIGLPANIFFNTSIPTTVIILKKNRTNRDVYFIDASKEFDKGKNQNIMTDAHIEKILNAYKSREDIDKFAHLASFEEIVENDYNLNIPRYVDTFEEEEVEPLTEIVAKINQTNATIESQTASLLDMLGQLHGTTPEADEELKAFVKAFKG”, the protein production entry was “failed”. Then “SRKVFVGGLPPDIDEDEITASFRRFGPLVVDWPHKAESKSYFPPKGYAFLLFQEESSVQALIDACLEEDGKLYLCVSSPTIKDKPVQIRPWNLSDSDFVMD”, with “not failed”.
